# Test results taken from patent US20240132599A1 (GAMMADELTA THERAPEUTICS, published 2024).
# Where two headings read alike, the source gives them in different places.
# What was measured:
# [1] = target: T1, human EGFR, recombinant protein (human, UniProt P00533 25-645)
# T1 construct: Bought protein; also called human EGFR antigen
# [2] = target: T2, L1 (DV1-GV4), recombinant soluble human Vδ1/Vγ4 γδ TCR heterodimer (human); test: SPR
# T2 construct: Biotinylated in the DELFIA ranking assay; also called human TRDV1; human Vδ1 antigen
# [3] = target: T1, human EGFR, recombinant protein; test: SPR
# [4] = target: T2, L1 (DV1-GV4), recombinant soluble human …; test: SPR; remark: listed apart in the source
# [5] = target: T3, cyno antigen DV1/GV77, recombinant cynomolgus Vδ1 γδ TCR heterodimer (cynomolgus monkey); test: SPR
# T3 construct: also called cyno TRDV1; Cyno DV1-77; not shown: Delta-chain CDR3/J and constant part, the GV77 gamma chain, and any tags
# T3 sequence (delta, as listed by the source limits assumed): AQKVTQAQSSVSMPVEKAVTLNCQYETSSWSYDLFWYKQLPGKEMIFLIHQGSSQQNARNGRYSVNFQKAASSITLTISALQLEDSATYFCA
# T2 sequence (main, as listed by the source): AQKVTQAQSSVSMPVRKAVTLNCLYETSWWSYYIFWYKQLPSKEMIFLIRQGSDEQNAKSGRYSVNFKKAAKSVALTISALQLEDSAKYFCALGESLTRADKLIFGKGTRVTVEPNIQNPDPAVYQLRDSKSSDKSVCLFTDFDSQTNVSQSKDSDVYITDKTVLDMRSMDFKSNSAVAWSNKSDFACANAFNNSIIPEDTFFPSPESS
Kd [1],Kd [2],Kd [3],Kd [4],Kd [5],Binder
140 nM,0.883 nM,142 nM,–,–,"ADT1-4-2/ADT3-5 (bispecific antibody, mAb2; also called ADT1-4-2xLEE1) heavy: EVQLQQSGPGLVKPSQTLSLTCAISGDSVSSKSAAWNWIRQSPSRGLEWLGRTYYRSKWSTDYAASVKSRITINPDTSKNQLSLQLNSVTPEDTAVYYCARTWVGYVDRWGQGTLVTVSSASTKGPSVFPLAPSSKSTSGGTAALGCLVKDYFPEPVTVSWNSGALTSGVHTFPAVLQSSGLYSLSSVVTVPSSSLGTQTYICNVNHKPSNTKVDKKVEPKSCDKTHTCPPCPAPELAGAPSVFLFPPKPKDTLMISRTPEVTCVVVDVSHEDPEVKFNWYVDGVEVHNAKTKPREEQYNSTYRVVSVLTVLHQDWLNGKEYKCKVSNKALPAPIEKTISKAKGQPREPQVYTLPPSRDELTKNQVSLTCLVKGFYPSDIAVEWESTYGPENNYKTTPPVLDSDGSFFLYSKLTVSYWRWYKGNVFSCSVMHEALHNHYTQKSLSLSPG light: DIQMTQSPPALSASVGDRVTITCRASQDINDWLAWYQHKPGKAPKLLIYDASSLESGVPLRFSGSGSGTEFTLTISSLQPDDFATYYCQQKYSAPQVTFGQGTRLEIKRTVAAPSVFIFPPSDEQLKSGTASVVCLLNNFYPREAKVQWKVDNALQSGNSQESVTEQDSKDSTYSLSSTLTLSKADYEKHKVYACEVTHQGLSSPVTKSFNRGEC"
–,–,–,0.541 nM,15.1 nM,"ADT1-4-8 (antibody, IgG1, V domains shown, IgG1) VH: EVQLQQSGPGLVKPSQTLSLTCAISGDSVSSKSAAWNWIRQSPSRGLEWLGRTYYRSKWSTDYAASVKSRITINPDTSKNQLSLQLNSVTPEDTAVYYCARSWVGYVDVWGQGTLVTVSS VL: DIQMTQSPPALSASVGDRVTITCRASQDINDWLAWYQHKPGKAPKLLIYDASSLESGVPLRFSGSGSGTEFTLTISSLQPDDFATYYCQQKYSAPQVTFGQGTRLEIK"
